Measured values: article PMC4751538, “Structural Insights into the Tetrameric State of Aspartate-β-semialdehyde Dehydrogenases from Fungal Species” (Scientific Reports, 2016)

Key:
[1] = target: Aspartate-β-semialdehyde dehydrogenase from Streptococcus pneumoniae (Streptococcus pneumoniae); test: native gel or EMSA; native PAGE (3-12%), migration against molecular weight standards
[2] = target: Aspartate-β-semialdehyde dehydrogenase from Streptococcus pneumoniae (Streptococcus pneumoniae); test: AUC; sedimentation velocity, 4 °C, 20 mM Tris pH 8.0, 100 mM NaCl, all proteins at OD280 = 0.85, 50,000 rpm, Sedfit
[3] = target: T1, trASADH (T. rubrum aspartate-β-semialdehyde dehydrogenase) (Trichophyton rubrum, UniProt A0A080WMA9); test: isothermal titration calorimetry; format: binding
T1 construct: gene TERG_03598; full length 362 aa, N-terminal 6xHis tag (pET-28a), E. coli; homotetramer
T1 sequence (A0A080WMA9 1-362): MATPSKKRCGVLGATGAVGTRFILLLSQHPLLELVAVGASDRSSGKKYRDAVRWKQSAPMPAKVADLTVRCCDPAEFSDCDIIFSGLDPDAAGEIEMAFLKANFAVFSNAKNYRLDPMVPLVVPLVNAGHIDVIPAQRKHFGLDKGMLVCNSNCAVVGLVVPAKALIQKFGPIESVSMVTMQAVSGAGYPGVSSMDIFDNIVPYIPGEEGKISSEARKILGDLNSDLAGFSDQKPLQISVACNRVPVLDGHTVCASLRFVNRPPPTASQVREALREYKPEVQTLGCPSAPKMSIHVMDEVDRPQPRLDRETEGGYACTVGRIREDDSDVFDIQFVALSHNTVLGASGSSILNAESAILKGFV

[4] = target: Aspartate-β-semialdehyde dehydrogenase from Cryptococcus neoformans (C. neoformans); test: native gel or EMSA; native PAGE (3-12%), migration against molecular weight standards
[5] = target: Aspartate-β-semialdehyde dehydrogenase from Vibrio cholerae (V. cholerae); test: as above
[6] = target: Aspartate-β-semialdehyde dehydrogenase from Aspergillus fumigatus (A. fumigatus); test: as above
[7] = target: the molecule itself; test: cell-based or functional assay
[8] = target: the molecule itself; test: SEC; Superose 6 PC3.2/30, 20 mM Tris-HCl pH 8.0, 100 mM NaCl, ~3 mg/ml, calibrated with mass standards (also the final Superdex 200 purification step)
[9] = target: the molecule itself; test: AUC; sedimentation velocity, 4 °C, 20 mM Tris pH 8.0, 100 mM NaCl, all proteins at OD280 = 0.85, 50,000 rpm, Sedfit
[10] = target: the molecule itself; test: native gel or EMSA; native PAGE (3-12%), migration against molecular weight standards

Aspartate-β-semialdehyde dehydrogenase from Streptococcus pneumoniae (enzyme)
stoichiometry N [1]: 2
stoichiometry N [2]: 2

NC(=O)c1ccc[n+]([C@@H]2O[C@H](COP(=O)(O)OP(=O)(O)OC[C@H]3O[C@@H](n4cnc5c(N)ncnc54)[C@H](OP(=O)(O)O)[C@@H]3O)[C@@H](O)[C@H]2O)c1 [NADP]
Kd [3]: 76.9 µM

Aspartate-β-semialdehyde dehydrogenase from Cryptococcus neoformans (enzyme)
stoichiometry N [4]: 4

Aspartate-β-semialdehyde dehydrogenase from Vibrio cholerae (enzyme)
stoichiometry N [5]: 2

Aspartate-β-semialdehyde dehydrogenase from Aspergillus fumigatus (enzyme)
stoichiometry N [6]: 4

B1: trASADH with mutation D196A (enzyme)
chain: SKKRCGVLGATGAVGTRFILLLSQHPLLELVAVGASDRSSGKKYRDAVRWKQSAPMPAKVADLTVRCCDPAEFSDCDIIFSGLDPDAAGEIEMAFLKANFAVFSNAKNYRLDPMVPLVVPLVNAGHIDVIPAQRKHFGLDKGMLVCNSNCAVVGLVVPAKALIQKFGPIESVSMVTMQAVSGAGYPGVSSMAIFDNIVPYIPGEEGKISSEARKILGDLNSDLAGFSDQKPLQISVACNRVPVLDGHTVCASLRFVNRPPPTASQVREALREYKPEVQTLGCPSAPKMSIHVMDEVDRPQPRLDRETEGGYACTVGRIREDDSDVFDIQFVALSHNTVLGASGSSILNAESAILKGFV
notes: Aspartate-β-semialdehyde dehydrogenase of Trichophyton rubrum BMU01672 (362 aa) with the point mutation D196A; parent as m1; source: E. coli B834(DE3) or Rosetta(DE3), purified (Ni-NTA, Hitrap Q, Superdex 200)
enzymatic activity (kcat) at 25 °C, tetrameric single mutant [7]: 15.9 s⁻¹
stoichiometry N [8]: 4

B2: trASADH with mutation F198A (enzyme)
chain: SKKRCGVLGATGAVGTRFILLLSQHPLLELVAVGASDRSSGKKYRDAVRWKQSAPMPAKVADLTVRCCDPAEFSDCDIIFSGLDPDAAGEIEMAFLKANFAVFSNAKNYRLDPMVPLVVPLVNAGHIDVIPAQRKHFGLDKGMLVCNSNCAVVGLVVPAKALIQKFGPIESVSMVTMQAVSGAGYPGVSSMDIADNIVPYIPGEEGKISSEARKILGDLNSDLAGFSDQKPLQISVACNRVPVLDGHTVCASLRFVNRPPPTASQVREALREYKPEVQTLGCPSAPKMSIHVMDEVDRPQPRLDRETEGGYACTVGRIREDDSDVFDIQFVALSHNTVLGASGSSILNAESAILKGFV
notes: Aspartate-β-semialdehyde dehydrogenase of Trichophyton rubrum BMU01672 (362 aa) with the point mutation F198A; parent as m1; also called trASADH-F198A; Mutant F198A; source: E. coli B834(DE3) or Rosetta(DE3), purified (Ni-NTA, Hitrap Q, Superdex 200)
enzymatic activity (kcat) at 25 °C, tetrameric single mutant [7]: 15.7 s⁻¹
stoichiometry N [9]: 4

B3: trASADH with mutation R309A (enzyme)
chain: SKKRCGVLGATGAVGTRFILLLSQHPLLELVAVGASDRSSGKKYRDAVRWKQSAPMPAKVADLTVRCCDPAEFSDCDIIFSGLDPDAAGEIEMAFLKANFAVFSNAKNYRLDPMVPLVVPLVNAGHIDVIPAQRKHFGLDKGMLVCNSNCAVVGLVVPAKALIQKFGPIESVSMVTMQAVSGAGYPGVSSMDIFDNIVPYIPGEEGKISSEARKILGDLNSDLAGFSDQKPLQISVACNRVPVLDGHTVCASLRFVNRPPPTASQVREALREYKPEVQTLGCPSAPKMSIHVMDEVDRPQPRLDAETEGGYACTVGRIREDDSDVFDIQFVALSHNTVLGASGSSILNAESAILKGFV
notes: Aspartate-β-semialdehyde dehydrogenase of Trichophyton rubrum BMU01672 (362 aa) with the point mutation R309A; parent as m1; source: E. coli B834(DE3) or Rosetta(DE3), purified (Ni-NTA, Hitrap Q, Superdex 200)
enzymatic activity (kcat) at 25 °C, tetrameric single mutant [7]: 12.9 s⁻¹
stoichiometry N [8]: 4

B4: trASADH with mutation Y189A (enzyme)
chain: SKKRCGVLGATGAVGTRFILLLSQHPLLELVAVGASDRSSGKKYRDAVRWKQSAPMPAKVADLTVRCCDPAEFSDCDIIFSGLDPDAAGEIEMAFLKANFAVFSNAKNYRLDPMVPLVVPLVNAGHIDVIPAQRKHFGLDKGMLVCNSNCAVVGLVVPAKALIQKFGPIESVSMVTMQAVSGAGAPGVSSMDIFDNIVPYIPGEEGKISSEARKILGDLNSDLAGFSDQKPLQISVACNRVPVLDGHTVCASLRFVNRPPPTASQVREALREYKPEVQTLGCPSAPKMSIHVMDEVDRPQPRLDRETEGGYACTVGRIREDDSDVFDIQFVALSHNTVLGASGSSILNAESAILKGFV
notes: Aspartate-β-semialdehyde dehydrogenase of Trichophyton rubrum BMU01672 (362 aa) with the point mutation Y189A; parent as m1; also called trASADH-Y189A; source: E. coli B834(DE3) or Rosetta(DE3), purified (Ni-NTA, Hitrap Q, Superdex 200)
stoichiometry N [9]: 4

B5: trASADH with the triple mutation R309A-D196A-F198A (enzyme)
chain: SKKRCGVLGATGAVGTRFILLLSQHPLLELVAVGASDRSSGKKYRDAVRWKQSAPMPAKVADLTVRCCDPAEFSDCDIIFSGLDPDAAGEIEMAFLKANFAVFSNAKNYRLDPMVPLVVPLVNAGHIDVIPAQRKHFGLDKGMLVCNSNCAVVGLVVPAKALIQKFGPIESVSMVTMQAVSGAGYPGVSSMAIADNIVPYIPGEEGKISSEARKILGDLNSDLAGFSDQKPLQISVACNRVPVLDGHTVCASLRFVNRPPPTASQVREALREYKPEVQTLGCPSAPKMSIHVMDEVDRPQPRLDAETEGGYACTVGRIREDDSDVFDIQFVALSHNTVLGASGSSILNAESAILKGFV
notes: Aspartate-β-semialdehyde dehydrogenase of Trichophyton rubrum BMU01672 (362 aa) with R309A, D196A and F198A; parent as m1; also called trASADH R309A-D196A-F198A; dimeric triple mutant; source: E. coli B834(DE3) or Rosetta(DE3), purified (Ni-NTA, Hitrap Q, Superdex 200)
stoichiometry N [9]: 2

B6: Aspartate-β-semialdehyde dehydrogenase from Trichophyton rubrum, wild type (enzyme)
chain: SKKRCGVLGATGAVGTRFILLLSQHPLLELVAVGASDRSSGKKYRDAVRWKQSAPMPAKVADLTVRCCDPAEFSDCDIIFSGLDPDAAGEIEMAFLKANFAVFSNAKNYRLDPMVPLVVPLVNAGHIDVIPAQRKHFGLDKGMLVCNSNCAVVGLVVPAKALIQKFGPIESVSMVTMQAVSGAGYPGVSSMDIFDNIVPYIPGEEGKISSEARKILGDLNSDLAGFSDQKPLQISVACNRVPVLDGHTVCASLRFVNRPPPTASQVREALREYKPEVQTLGCPSAPKMSIHVMDEVDRPQPRLDRETEGGYACTVGRIREDDSDVFDIQFVALSHNTVLGASGSSILNAESAILKGFV
notes: Aspartate-β-semialdehyde dehydrogenase (ASADH) of Trichophyton rubrum BMU01672, wild type, 362 aa as printed; theoretical monomer 38.7 kDa; The apo crystal (4ZHS) was a selenomethionine derivative; Cloned in pET-28a; also called trASADH; ASADH; source: E. coli B834(DE3) or Rosetta(DE3), purified (Ni-NTA, Hitrap Q, Superdex 200)
stoichiometry N [9]: 4

B7: Aspartate-β-semialdehyde dehydrogenase from Candida albicans (enzyme)
chain: MSVKKAGVLGATGSVGQRFILLLSKHPEFEIHALGASSRSAGKKYKDAASWKQTETLPETEQDIVVQECKPEGNFLECDVVFSGLDADVAGDIEKSFVEAGLAVVSNAKNYRREKDVPLVVPIVNPEHIDVVENKVKQAVSKGGKKPGFIICISNCSTAGLVAPLKPLVEKFGPIDALTTTTLQAISGAGFSPGVSGMDILDNIVPYISGEEDKLEWETKKILGGVNAEGTEFVPIPESEMKVSAQCNRVPVIDGHTECISLRFANRPAPSVEDVKQCLREYECAASKLGCHSAPKQTIHVLDQPDRPQPRLDRDRDSGYGVSVGRIREDSLLDFKMVVLSHNTIIGAAGAGILIAEILKAKNII
notes: Aspartate-β-semialdehyde dehydrogenase of Candida albicans (fungal ASADH); The construct used for native PAGE is not described; also called caASADH; C. albicans ASADH
stoichiometry N [10]: 4
